The target in one series is T1, CCK2R (Rattus norvegicus, UniProt P30553).
T1 construct: host or cells: AR42J cells
T1 sequence (P30553 1-452): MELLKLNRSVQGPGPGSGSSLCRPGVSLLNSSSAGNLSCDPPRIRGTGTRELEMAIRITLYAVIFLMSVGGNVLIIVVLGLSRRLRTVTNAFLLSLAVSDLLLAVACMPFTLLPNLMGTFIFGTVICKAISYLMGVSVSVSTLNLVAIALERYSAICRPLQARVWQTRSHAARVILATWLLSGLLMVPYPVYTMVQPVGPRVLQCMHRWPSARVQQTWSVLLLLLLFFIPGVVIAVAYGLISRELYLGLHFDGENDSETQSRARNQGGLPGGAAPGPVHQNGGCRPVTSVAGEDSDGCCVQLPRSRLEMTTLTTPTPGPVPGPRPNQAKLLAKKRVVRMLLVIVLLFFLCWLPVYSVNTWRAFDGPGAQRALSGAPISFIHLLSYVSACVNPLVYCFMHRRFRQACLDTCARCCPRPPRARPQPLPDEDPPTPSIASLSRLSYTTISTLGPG
Description: Competitive cell-binding assay on AR42J cells with 125I-C3 as competitive ligand. To be noted: for Relative Binding Affinity CCK2R: based on mean IC50, C-2 = 1.00; for IC50: AR42J cells, 125I-C3 competitive ligand, 37° C. 1 h, read-out: CCK2R/IC50. As to the method:
AR42J cells (ATCC) were maintained in RPMI-1640 medium (Gibco) supplemented with 15% fetal bovine serum (Gibco) and 1% penicillin-streptomycin (BI) at 37° C. in a humidified incubator with 5% CO2. The culture medium was replaced with fresh medium every 2-3 days. Experiments were performed with cells at 70-80% confluence.
Binding Affinity Tested by Using ^125I-Labeled Competitive Ligands.
The binding affinities of test compounds were determined by a competitive cell-binding assay using ^125I-C1 and ^125I-C3 as the competitive ligand. The suspended AR42J cells at a density of 1~3×10^6 cells/mL in binding buffer (RPMI-1640 medium supplemented with 0.25% bovine serum albumin) were transferred to a MultiScreen-DV Filter Plate (Millipore) with 100 μL per well except the blank group where the binding buffer was used instead. The cells were then incubated with ^125I-C1 and ^125I-C3 (0.02 μCi/well) in the presence of increasing concentrations (0-10000 nM) of test compounds at 37° C. for 1 h (n=3). The final volume in each well was maintained at 200 μL and insufficient volume was adjusted by the binding buffer. After the 1 h incubation, unbound ^125I-competitive ligands were removed by filtration using a Multiscreen vacuum manifold (Millipore) followed by rinses with the binding buffer (3 times). The filters were collected, and their radioactivity were individually measured by γ counter (2480 WIZARD2, PerkinElmer). The best-fit IC50value (inhibitory concentration when 50% of the bound ^125I-C1 and ^125l I-C3 on cells were displaced) of test compounds were calculated by fitting the data with nonlinear regression using GraphPad Prism 8.0.1.

For the next series, the target named is T2, SSTR2 (Rattus norvegicus, UniProt P30680).
T2 construct: host or cells: AR42J cells
T2 sequence (P30680 whole entry): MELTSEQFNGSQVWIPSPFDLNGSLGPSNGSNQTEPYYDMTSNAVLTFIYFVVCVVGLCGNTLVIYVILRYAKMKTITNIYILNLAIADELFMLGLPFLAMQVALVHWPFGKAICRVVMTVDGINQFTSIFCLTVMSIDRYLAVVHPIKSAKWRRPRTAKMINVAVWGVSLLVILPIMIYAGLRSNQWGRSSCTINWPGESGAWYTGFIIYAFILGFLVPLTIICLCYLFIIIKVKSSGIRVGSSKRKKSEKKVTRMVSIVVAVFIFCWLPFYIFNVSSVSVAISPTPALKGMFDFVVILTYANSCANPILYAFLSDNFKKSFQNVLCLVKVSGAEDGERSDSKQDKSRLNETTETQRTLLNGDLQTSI
Description: Competitive cell-binding assay on AR42J cells with 125I-C1 as competitive ligand. Particulars: for Relative Binding Affinity SSTR2: based on mean IC50, C-1 = 1.00; for IC50: AR42J cells, 125I-C1 competitive ligand, 37° C. 1 h, read-out: SSTR2/IC50. Summed up: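 Rat AR42J cells (1~3×10^6 cells/mL) in RPMI-1640 with 0.25% BSA incubated with 125I-C1 or 125I-C3 (0.02 μCi/well) plus test compound (0-10000 nM) for 1 h at 37° C., n=3. Unbound ligand removed by filtration; bound radioactivity γ-counted; IC50 by nonlinear regression.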

A further series is described as follows: in vivo. To be noted: BALB/c nude, mouse, in vivo, iv, total radioactivity. An outline of the steps: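 Compounds labelled with ^177Lu in 0.5 M NaOAc pH 4.5 at 95° C for 15 min, then used directly or diluted in PBS with 3 mg/mL ascorbate. BALB/c nude mice bore subcutaneous AR42J flank xenografts (0.05-0.50 g). Organs excised at 4, 24 and 72 h post-injection and γ-counted for % ID and % ID/g.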

As to `C[C@@H](O)[C@H](NC(=O)[C@@H]1CSSC[C@H](NC(=O)[C@@H](Cc2ccccc2)NC(=O)COCCOCCNC(=O)C(CCCCNC(=O)CC[C@H](NC(=O)CNC(=O)c2cccc(NC(=O)N[C@@H]3CN(C4CCCCC4)c4ccccc4N(CC(=O)C(C)(C)C)C3=O)c2)C(=O)O)NC(=O)COCCOCCNC(=O)CC[C@H](NC(=O)CC[C@H](NC(=O)CN2CCN(CC(=O)O)CCN(CC(=O)O)CCN(CC(=O)O)CC2)C(=O)O)C(=O)O)C(=O)N[C@@H](Cc2ccc(O)cc2)C(=O)N[C@H](Cc2c[nH]c3ccccc23)C(=O)N[C@@H](CCCCN)C(=O)N[C@@H]([C@@H](C)O)C(=O)N1)C(=O)O` (stereo in doubt) [Compound I-14, DOTA-gE-gE-OEG-K(-gE-G-Z360)-OEG-f[CYwKTC]T-OH], the “Relative Binding Affinity CCK2R” value on CCK2R is listed as 3.80. Also, the “Relative Binding Affinity SSTR2” value at SSTR2 came to 3.50. In addition, the tissue to tissue ratio at 24 h is 0.2 in “in vivo” (T/K Tumor/Kidney ratio); 6.7 in “in vivo” (T/L Tumor/Liver ratio); 4.4 in the series “in vivo” (T/P Tumor/Pancreas ratio); 27 in “in vivo” (T/Sp Tumor/Spleen ratio); 6.6 in “in vivo” (T/St Tumor/Stomach ratio). Further, the tissue uptake at 24 h in “in vivo” (uptake Kidney) amounted to 68.6 %ID/g; in “in vivo” (uptake Liver) it was 2.24 %ID/g; in “in vivo” (uptake Pancreas) it was 3.37 %ID/g; in the series “in vivo” (uptake Spleen), 0.56 %ID/g; in the series “in vivo” (uptake Stomach) it was 2.25 %ID/g; in the series “in vivo” (uptake Tumor), 14.9 %ID/g.

Consider `C[C@@H](O)[C@H](NC(=O)[C@@H]1CSSC[C@H](NC(=O)[C@@H](Cc2ccccc2)NC(=O)COCCOCCNC(=O)[C@H](CCCCNC(=O)[C@H](CCC(=O)O)NC(=O)c2cccc(NC(=O)N[C@@H]3CN(C4CCCCC4)c4ccccc4N(CC(=O)C(C)(C)C)C3=O)c2)NC(=O)CN2CCN(CC(=O)O)CCN(CC(=O)O)CCN(CC(=O)O)CC2)C(=O)N[C@@H](Cc2ccc(O)cc2)C(=O)N[C@H](Cc2c[nH]c3ccccc23)C(=O)N[C@@H](CCCCN)C(=O)N[C@@H]([C@@H](C)O)C(=O)N1)C(N)=O` [Compound I-3, DOTA-K(-E-Z360)-OEG-f[CYwKTC]T-NH2], for which the “Relative Binding Affinity CCK2R” value on CCK2R stood at 5.3. Also, the “Relative Binding Affinity SSTR2” value on SSTR2 is 0.50. Also, the tissue to tissue ratio at 24 h in “in vivo” (T/K Tumor/Kidney ratio) was determined as 0.8; in the series “in vivo” (T/L Tumor/Liver ratio), 12; in “in vivo” (T/P Tumor/Pancreas ratio), 13; in “in vivo” (T/Sp Tumor/Spleen ratio) it was 45; in the series “in vivo” (T/St Tumor/Stomach ratio) it was 4.2. In addition, the tissue uptake at 24 h in “in vivo” (uptake Kidney) turned out to be 16.5 %ID/g; in “in vivo” (uptake Liver) it was 1.16 %ID/g; in the series “in vivo” (uptake Pancreas), 1.05 %ID/g; in “in vivo” (uptake Spleen), 0.3 %ID/g; in the series “in vivo” (uptake Stomach) it was 3.24 %ID/g; in “in vivo” (uptake Tumor), 13.6 %ID/g.

For `C[C@@H](O)[C@H](NC(=O)[C@@H]1CSSC[C@H](NC(=O)[C@@H](Cc2ccccc2)NC(=O)CC[C@H](NC(=O)[C@H](CCCCNC(=O)CC[C@H](NC(=O)CNC(=O)c2cccc(NC(=O)N[C@@H]3CN(C4CCCCC4)c4ccccc4N(CC(=O)C(C)(C)C)C3=O)c2)C(=O)O)NC(=O)CC[C@H](NC(=O)CN2CCN(CC(=O)O)CCN(CC(=O)O)CCN(CC(=O)O)CC2)C(=O)O)C(=O)O)C(=O)N[C@@H](Cc2ccc(O)cc2)C(=O)N[C@H](Cc2c[nH]c3ccccc23)C(=O)N[C@@H](CCCCN)C(=O)N[C@@H]([C@@H](C)O)C(=O)N1)C(=O)O` [Compound I-9, DOTA-gE-K(-gE-G-Z360)-gE-f[CYwKTC]T-OH], the “Relative Binding Affinity CCK2R” value at CCK2R is 13.5. For the same compound, the “Relative Binding Affinity SSTR2” value on SSTR2 came out at 2.85. The tissue to tissue ratio at 24 h in the series “in vivo” (T/K Tumor/Kidney ratio) worked out at 0.3; in the series “in vivo” (T/L Tumor/Liver ratio), 8.3; in “in vivo” (T/P Tumor/Pancreas ratio) it was 3.8; in “in vivo” (T/Sp Tumor/Spleen ratio), 11; in “in vivo” (T/St Tumor/Stomach ratio), 3.4. For the same compound, the tissue uptake at 24 h in “in vivo” (uptake Kidney) came out at 42.2 %ID/g; in the series “in vivo” (uptake Liver), 1.31 %ID/g; in the series “in vivo” (uptake Pancreas), 2.89 %ID/g; in “in vivo” (uptake Spleen) it was 1.03 %ID/g; in “in vivo” (uptake Stomach) it was 3.22 %ID/g; in the series “in vivo” (uptake Tumor) it was 10.9 %ID/g.

For `C[C@@H](O)[C@H](NC(=O)[C@@H]1CSSC[C@H](NC(=O)[C@@H](Cc2ccccc2)NC(=O)COCCOCCNC(=O)[C@H](CCCCNC(=O)CCC(C(=O)O)N2CCN(CC(=O)O)CCN(CC(=O)O)CCN(CC(=O)O)CC2)NC(=O)COCCOCCNC(=O)CC[C@H](NC(=O)CC[C@H](NC(=O)c2cccc(NC(=O)N[C@@H]3CN(C4CCCCC4)c4ccccc4N(CC(=O)C(C)(C)C)C3=O)c2)C(=O)O)C(=O)O)C(=O)N[C@@H](Cc2ccc(O)cc2)C(=O)N[C@H](Cc2c[nH]c3ccccc23)C(=O)N[C@@H](CCCCN)C(=O)N[C@@H]([C@@H](C)O)C(=O)N1)C(=O)O` (stereo partly shown) [Compound I-13, (Z360)- gE- gE- OEG- K(DOTAGA)- OEG- f[CYwKTC]T- OH], the results for the IC50 on CCK2R and on SSTR2 were 1.6 nM and 12.3 nM, respectively. At CCK2R, the “Relative Binding Affinity CCK2R” value was 10.8. Further, the “Relative Binding Affinity SSTR2” value at SSTR2 amounted to 0.23. Also, the tissue to tissue ratio at 24 h in the series “in vivo” (T/K Tumor/Kidney ratio) came out at 0.3; in “in vivo” (T/L Tumor/Liver ratio), 12; in the series “in vivo” (T/P Tumor/Pancreas ratio) it was 12; in the series “in vivo” (T/Sp Tumor/Spleen ratio) it was 32; in the series “in vivo” (T/St Tumor/Stomach ratio), 6.8. Besides, the tissue uptake at 24 h in “in vivo” (uptake Kidney) was 46.7 %ID/g; in the series “in vivo” (uptake Liver) it was 1.21 %ID/g; in the series “in vivo” (uptake Pancreas), 1.21 %ID/g; in “in vivo” (uptake Spleen), 0.47 %ID/g; in “in vivo” (uptake Stomach), 2.19 %ID/g; in the series “in vivo” (uptake Tumor), 14.8 %ID/g.

Consider `C[C@@H](O)[C@H](NC(=O)[C@@H]1CSSC[C@H](NC(=O)[C@@H](Cc2ccccc2)NC(=O)COCCOCCNC(=O)[C@H](CCCCNC(=O)CC[C@H](NC(=O)CNC(=O)c2cccc(NC(=O)NC3CN(C4CCCCC4)c4ccccc4N(CC(=O)C(C)(C)C)C3=O)c2)C(=O)O)NC(=O)COCCOCCNC(=O)COCCOCCNC(=O)[C@@H](N)CCCCNC(=O)[C@@H](N)CCCCNC(=O)CN2CCN(CC(=O)O)CCN(CC(=O)O)CCN(CC(=O)O)CC2)C(=O)N[C@@H](Cc2ccc(O)cc2)C(=O)N[C@H](Cc2c[nH]c3ccccc23)C(=O)N[C@@H](CCCCN)C(=O)N[C@@H]([C@@H](C)O)C(=O)N1)C(=O)O` (stereo partly shown) [Compound I-65, DOTA-eK-eK-OEG-OEG-K(-gE-G-Z360)-OEG-f[CYwKTC]T-OH], for which, on CCK2R, the IC50 worked out at 9.4 nM and the “Relative Binding Affinity CCK2R” value came out at 1.8. Besides, at SSTR2, the IC50 is 0.136 nM and the “Relative Binding Affinity SSTR2” value is recorded as 20.7.

Source of the values: patent publication US20260248972A1, “DUAL RECEPTOR TARGETING RADIOLIGANDS AND USES THEREOF RELATED APPLICATIONS” (priority 2022, published 2026).
